± gives the half width of the 95% confidence interval.
Key:
[1] = folding stability dG unfold from trypsin proteolysis; higher = more stable
How it was run: (§1)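 How resistant each design was to proteolysis was captured as K50, inferred by Bayesian fitting of sequencing counts. Unfolding free energy was then derived relative to a sequence-predicted unfolded-state K50 and a shared folded-state K50, per protease or combined. Digestion used trypsin and chymotrypsin at 11 threefold-diluted concentrations plus a no-protease condition, on mini-proteins under 80 residues without cysteine in a PA-tagged cDNA display construct. Designs were kept only when AlphaFold2 dimer inter-PAE was above 15.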

[2] = folding stability dG unfold from chymotrypsin proteolysis; higher = more stable
How it was run: as §1

[3] = folding stability dG unfold (combined trypsin and chymotrypsin); higher = more stable
How it was run: as §1

Sequence	folding stability dG unfold [1] [kcal/mol]	folding stability dG unfold [2] [kcal/mol]	folding stability dG unfold [3] [kcal/mol]
SAGGSAGGSKSKKYIEIDFSNLTEIKFNPNTNYATAIFKDKGKIYIAKIHFLPNGKAIAEVFDSAGGSAGGS [r12_839_TrMRF]	1.67 ± 0.054	2.931 ± 0.025	2.68 ± 0.077
SAGGSAGGSKSYEIKEITFDPENNTITIVLVAPDGKIVRTETFKPGEEVVFTFENGEKVTVKASAGGSAGGS [r12_441_TrMRF]	1.99 ± 0.059	2.828 ± 0.008	2.54 ± 0.05
SAGGSAGGSKTVTLTLTLPGKKITFTLTEDGTVRMTVYNEKTGEKVKEITVPAKNLEELLKALSAGGSAGGS [r20_129_TrROS_Hall]	3.02 ± 0.085	4.63 ± 0.064	4.29 ± 0.066
SAGGSAGGSKVLIIEPEENKELAEKIAKELKEKGELGEVEIKTFSSPEEAKEYAKNYDIVITGSAGGSAGGS [r12_679_TrMRF]	-0.0715 ± 0.22	0.528 ± 0.17	0.302 ± 0.14
SAGGSAGGSLDPGEEVKIEITDWHPPNGYYRIKIEFPNGPPIDIWMPPDDPQQMKEQAKDLIKSAGGSAGGS [r20_167_TrROS]	-0.725 ± 0.46	0.372 ± 0.36	0.107 ± 0.23
SAGGSAGGSLEKIKEALKKAGYPPENVVIEVKTLPNGEIVITVKYNGKEIPKEIVEEAIKKLKSAGGSAGGS [r12_175_JUSTAS]	2.69 ± 0.081	3.72 ± 0.08	3.45 ± 0.066
SAGGSAGGSLHPSQPLLVTVEVEVDPETGTVRLRVSVWVPGPRERLLERELEVPLHSLPEGALSAGGSAGGS [r12_145_TrMRF]	1.69 ± 0.039	2.49 ± 0.015	2.25 ± 0.091
SAGGSAGGSLKKGEKVKLRARIYEPGGGKLLAELEIEADVGKAEEIAEELRKAFPGYEVEIELSAGGSAGGS [r12_21_TrMRF]	2.67 ± 0.036	3.24 ± 0.057	3.04 ± 0.07
SAGGSAGGSLNPEKPSVRIRIKVQKPDGSYEEIDIEVPFQDIPDVIDELKKKGYKILSIELEPSAGGSAGGS [r12_986_TrMRF]	4.45 ± 0.18	4.31 ± 0.08	4.37 ± 0.18
SAGGSAGGSLSDLPPGVELIAVGDDVVAVRRPDGSVLVFVRERDRVFVRELSPDVSIEEALADSAGGSAGGS [r12_605_TrMRF]	1.32 ± 0.029	1.52 ± 0.068	1.44 ± 0.057
SAGGSAGGSLSLPEGFKLSSLVSVEELPGVLRIYFLDPEKPLLYEVVYDLETGEQTVERIPIGSAGGSAGGS [r12_206_JUSTAS]	2.43 ± 0.065	2.6 ± 0.051	2.5 ± 0.072
SAGGSAGGSLTIRFPEELSPEEAVELAEGLVRELFPEDVPVTVTVVFYDPETGEELTIPAELASAGGSAGGS [r12_1051_TrMRF]	1.49 ± 0.039	1.35 ± 0.025	1.43 ± 0.044
SAGGSAGGSLTVSFPGITLTLETVPGTGKIIATVTFPGGEVRTISSDVPLSELPPVVREALELLSAGGSAGG [r6_749_JUSTAS]	2.72 ± 0.087	2.67 ± 0.051	2.74 ± 0.072
SAGGSAGGSLVLPDDYKVIVREFDLSDVGRAVREVMEEFDVKDALFLAVPLPGKVLLFVVVKESAGGSAGGS [r12_929_TrMRF]	2.95 ± 0.098	2.9 ± 0.076	2.99 ± 0.21
SAGGSAGGSMEELPEGAELIREEDGVAVVRNENGELLVVRRVDGKLEVRRFPPGMSIEEALAKSAGGSAGGS [r12_605_TrROS_Hall]	2.95 ± 0.064	3.07 ± 0.04	3.05 ± 0.045
SAGGSAGGSMELDEDGRLIVRIKVRDKETKEWKEIEIELPGLTEEEIRKLAEELGAEEIEILPSAGGSAGGS [r12_792_TrROS_Hall]	2.35 ± 0.061	2.39 ± 0.083	2.43 ± 0.078

Sequence	folding stability dG unfold [1] [kcal/mol]	folding stability dG unfold [2] [kcal/mol]	folding stability dG unfold [3] [kcal/mol]
SAGGSAGGSMELVIKTVTVNSPSKSPEELAKEIEEKYGVKILKVEVTEDPEGGVTVTATIINKSAGGSAGGS [r12_359_JUSTAS]	1.72 ± 0.065	1.34 ± 0.015	1.49 ± 0.041
SAGGSAGGSMELVIPKEEVEKMSEEVVKKIKELAKKANISISETEDSLVIPIKKVSEKVIKELSAGGSAGGS [r12_945_JUSTAS]	-0.325 ± 0.075	0.497 ± 0.045	0.232 ± 0.1
SAGGSAGGSMEPRPVVITFRDPEGNFIGTVELPAEFESEEEALAAAEAVRAANPGYTVEIEGLSAGGSAGGS [r20_201_JUSTAS]	1.67 ± 0.084	1.98 ± 0.033	1.87 ± 0.07
SAGGSAGGSMETITLPEDVKVEVVEVEPGSVIEVEFEDGLVARVRIDPENLEKVEIEVFPKEESAGGSAGGS [r12_648_TrROS_Hall]	-0.0965 ± 0.16	0.826 ± 0.16	0.694 ± 0.17
SAGGSAGGSMETRTFDSEEELRASVSVPSSLSVTFERRPGRWEVRIEPPLSPEEIAAQRARLLSAGGSAGGS [r12_274_JUSTAS]	-0.346 ± 0.17	-1.07 ± 0.6	-0.553 ± 0.11
SAGGSAGGSMETTREELPPELTVERVTEREPGEGRITVRVKVYRPDGTLLSEEVVERDPEDLESAGGSAGGS [r12_240_JUSTAS]	0.319 ± 0.053	0.166 ± 0.14	0.295 ± 0.097
SAGGSAGGSMETVTVLLNTPGTPVTFTFPVPAGVGEEAVKELVRKALPEVEIEVVEITTTPAASAGGSAGGS [r12_427_JUSTAS]	0.338 ± 0.073	0.585 ± 0.21	0.463 ± 0.15
SAGGSAGGSMETVVTVPLPDGRTLTITRYPDGTVTVTYPDGTPVATRPVAPDTSDEAVVAALASAGGSAGGS [r12_990_JUSTAS]	0.522 ± 0.016	1.83 ± 0.023	1.54 ± 0.037
SAGGSAGGSMEVTVTPLPDGSLLVTVTVTTSSTPVPVELRFPPSASLEEIRAAAEARAAEVAASAGGSAGGS [r12_69_JUSTAS]	0.883 ± 0.029	1.73 ± 0.025	1.57 ± 0.047
SAGGSAGGSMFKVIVESEDPEKALEEAKALIEKIEEEGIGEIKKFEFLIVPKDIPEYKKLKEKSAGGSAGGS [r12_551_TrMRF]	-0.306 ± 0.45	0.438 ± 0.18	-0.0656 ± 0.3
SAGGSAGGSMGVTVTSEEDPEVRRVRETIETPSGSVVERDMVLTRPPDGPLLREALSEKVFRPSAGGSAGGS [r12_758_JUSTAS]	-0.324 ± 0.15	-1.18 ± 0.48	-0.582 ± 0.28
SAGGSAGGSMIIIVKLPNGEELPIEVEGEEEAEKIAEEIVKALIEKGITPVSVEIRPIKPEEGSAGGSAGGS [r12_301_TrMRF]	3.13 ± 0.13	2.28 ± 0.17	2.97 ± 0.21
SAGGSAGGSMIIRIKTENGEEIEIEAESEEEAKKAAEELKKELEEKGYKIEEVEIYEIPEEELSAGGSAGGS [r12_301_TrROS_Hall]	1.13 ± 0.076	2.32 ± 0.13	2.05 ± 0.26
SAGGSAGGSMIKRTVTVTVYFPGKPLSIPVEYTSEEELPVVAEEAVKPIIEKVPEYKIPEPKLSAGGSAGGS [r12_230_JUSTAS]	0.529 ± 0.21	0.292 ± 0.2	0.561 ± 0.33
SAGGSAGGSMIVKLEDGTYLVRIVNKDTKEVIEIEVSAEEAEELAKELNIEKVEIVKAGEPLESAGGSAGGS [r12_294_TrROS_Hall]	1.78 ± 0.069	2.71 ± 0.059	2.38 ± 0.17

Reference: the supplement of paper PMC12764529
